Laboratory results as given in paper PMC10300302 (Cell Insight, 2023).

Target: T1, GST-Sirt1 (human, UniProt Q96EB6 1-747)
T1 sequence (looked up): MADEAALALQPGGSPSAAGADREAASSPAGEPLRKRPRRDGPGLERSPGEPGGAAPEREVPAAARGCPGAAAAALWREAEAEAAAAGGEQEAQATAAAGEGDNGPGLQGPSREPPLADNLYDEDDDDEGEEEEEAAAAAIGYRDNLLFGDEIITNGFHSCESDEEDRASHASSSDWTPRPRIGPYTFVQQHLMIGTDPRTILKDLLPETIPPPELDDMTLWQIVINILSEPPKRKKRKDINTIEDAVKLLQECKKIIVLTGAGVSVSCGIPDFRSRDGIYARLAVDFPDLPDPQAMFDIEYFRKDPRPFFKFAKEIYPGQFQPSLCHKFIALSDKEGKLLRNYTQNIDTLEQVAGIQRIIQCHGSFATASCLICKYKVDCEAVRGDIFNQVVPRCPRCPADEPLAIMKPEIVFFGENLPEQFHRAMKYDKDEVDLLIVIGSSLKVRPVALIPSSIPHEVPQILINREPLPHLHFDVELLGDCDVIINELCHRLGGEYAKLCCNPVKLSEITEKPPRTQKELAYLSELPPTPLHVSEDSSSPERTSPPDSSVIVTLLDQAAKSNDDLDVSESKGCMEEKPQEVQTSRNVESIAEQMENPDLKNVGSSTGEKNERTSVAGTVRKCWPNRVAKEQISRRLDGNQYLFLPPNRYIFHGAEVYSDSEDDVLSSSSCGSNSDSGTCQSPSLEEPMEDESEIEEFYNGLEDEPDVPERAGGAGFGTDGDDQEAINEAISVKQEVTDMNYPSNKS
Assay: pull-down

binding result: binds
B1: MBP-CHCHD2-His (CHCHD2-isoform2) (natural protein, human, UniProt Q9Y6H1 1-151, looked up)
chain: MPRGSRSRTSRMAPPASRAPQMRAAPRPAPVAQPPAAAPPSAVGSSAAAPRQPGLMAQMATTAAGVAVGSAVGHTLGHAITGGFSGGSNAEPARPDITYQEPQGTQPAQQQQPCLYEIKQFLECAQNQGDIKLCEGFNEVLKQCRLANGLA
